Molecular target: M2 protein of influenza A/Puerto Rico/8/34 (H1N1) on cells (influenza A virus A/Puerto Rico/8/34 (H1N1)) (UniProt P06821)
Experiment: FACS, MDCK cells infected with A/Puerto Rico/8/34

Chain of M2 protein of influenza A/Puerto Rico/8/34 (H1N1) on cells (influenza A virus A/Puerto Rico/8/34 (H1N1)) (P06821 whole entry): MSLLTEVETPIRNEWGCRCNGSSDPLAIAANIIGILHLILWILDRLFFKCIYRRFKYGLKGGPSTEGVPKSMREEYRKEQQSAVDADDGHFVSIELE

Substance: 14C2 (chimeric mouse V-region/human IgG1 kappa 14C2 antibody)
- EC50 (read off the curve): 0.3 µg/mL
